Source: patent US20080311122A1, “Antagonists of Hmgb1 and/or Rage and Methods of Use Thereof” (Medimmune, LLC, priority 2005, published 2008)
Entries after “also recorded” stand apart in the source; their conditions may differ.

T1: HMG2 (Bos taurus, UniProt P40673)
T1 construct: from tissue; host or cells: calf thymus (as read from the sentence)
T1 sequence (P40673 1-209): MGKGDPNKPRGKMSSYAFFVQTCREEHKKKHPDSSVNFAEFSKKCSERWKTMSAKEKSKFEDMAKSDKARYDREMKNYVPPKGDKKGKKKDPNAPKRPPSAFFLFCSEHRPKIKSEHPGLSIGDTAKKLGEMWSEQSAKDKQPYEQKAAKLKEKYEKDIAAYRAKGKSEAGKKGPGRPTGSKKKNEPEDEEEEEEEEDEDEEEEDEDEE

T2: recombinant HMG1 binding to RAGE-Fc (Homo sapiens, UniProt P09429)
T2 construct: made in house; host or cells: E. coli (HMG1)
T2 sequence (P09429 1-215): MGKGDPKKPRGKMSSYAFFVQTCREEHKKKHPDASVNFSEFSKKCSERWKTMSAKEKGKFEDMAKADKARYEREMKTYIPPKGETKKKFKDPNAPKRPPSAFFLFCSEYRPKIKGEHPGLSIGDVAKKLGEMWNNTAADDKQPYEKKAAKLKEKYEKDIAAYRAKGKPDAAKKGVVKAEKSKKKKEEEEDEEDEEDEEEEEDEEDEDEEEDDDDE


How the values were obtained:
[1] = tested on: HMG1 (recombinant, native; immobilized, soluble); experiment: Direct and sandwich (capture) ELISA comparing forms of HMG1; format: binding; details: for binding to immobilized versus soluble HMG1: two ELISA formats, rHMG1; for binding to recombinant HMG1 versus native HMG1: capture ELISA
Protocol: Direct ELISA (immobilized HMG1): Individual wells of a 96-well immunoplate (EIA/RIA plate, High binding, Costar) were coated with HMGB-1 at 5 μg/ml in PBS at 4° C. overnight. The plate was then blocked with 4% milk powder dissolved in PBS at 37° C. for 1 hour. The blocking solution was removed and replaced with human anti-HMG1 antibodies at various concentrations (see FIG. 4A). The plate was then washed (ELX-405 Plate washer, BIO-TEK) and secondary antibody (anti-human IgG-HRP, PIERCE) was added at a final concentration of 1:125,000 at 37° C. for 1 hour. HRP activity was detected with Sureblue HRP substrate (KPL). Plates were read at 450 nm using a Kinetic Microplate Reader (Molecular Devices).
Sandwich ELISA (soluble HMG1): Immunoplates (EIA/RIA plate, High binding, Costar) were coated with anti human IgG Fc at 10 μg/ml in PBS (pH 7.2) and incubated at 4° C. overnight. The coating reagent was removed and the plates were rinsed briefly with PBS. The plates were then blocked with 4% milk for 1 hour at 37° C. and rinsed with PBS. The anti-HMG1 antibodies were diluted in 4% milk. For serial dilutions, the antibodies were used at a starting concentration of 20 μg/ml. The diluted anti-HMG1 antibodies were then added into plate and incubated for 1 hr at 37° C. The plate was then washed 10 times with PBST (PBS/0.1% tween 20) and incubate with antigen (HMGB1, 2 μg/ml; or 0.7 μg/ml for native HMGB1) in 4% milk and incubated at 37° C. for 1 h. The plate was then wash 10 times and incubated with mouse anti-HMGB1, 1 μg/ml in 4% milk at 37° C. for 1 h. The plate was washed 10 times and incubated with anti-mouse IgG-HRP at 1:1000 at 37° C. for 1 h. The plate was then washed and developed. HRP activity was detected with Sureblue HRP substrate (KPL). Plates were read at 450 nm using a Kinetic Microplate Reader (Molecular Devices).

HMG2 = biological target: T1, HMG2; experiment: Binding to HMG1 vs. HMG2 ELISA; set-up: species or system calf; details: immobilized antigen
Protocol: Binding to HMG1 vs. HMG2: Ultra high-binding ELISA plates (ThermoLab systems, #3855) were coated with either 5 ug/mL of Calf thymus HMGB1 or HMBG2 diluted in 10 mM Phosphate buffered saline (PBS), pH 7.2 and incubate overnight at 4 degrees. The plates were washed twice with Ca and Mg free PBS and 100 microliters of anti-HMGB1 antibody diluted in 10 mM PBS, pH 7.2+1% bovine serum albumin (BSA) to a final concentration of 10 ug/mL was added to each well and the plates were incubated 1 hour at room temperature. The wells were washed three times with 100 μl of PBS, pH 7.2. HRP labeled goat-anti-human IgG Kappa-chain (KPL, #14-10-10) and goat-anti-human IgG Lambda-chain (KPL, #14-10-11) were diluted in 10 mM PBS+1% BSA 1:1000 and 100 μl were added to each well and incubated for 1 hour at room temperature. The wells were then washed three times with 100 μl of PBS, pH 7.2. OPD substrate (Pierce chemical company, #34006) was prepared following the manufacturers instructions and 100 μl of prepared substrate was added to each well and the plates incubated at room temperature in the dark for 20-30 minutes. The reaction was stopped with the addition of 100 μl of 2M H2SO4, and the plates read on a plate reader at a wavelength of 490 nm.

[2] = biological target: T2, recombinant HMG1 binding to RAGE-Fc; experiment: HMG1 binding to RAGE-Ig by ELISA; details: at the concentrations tested
Protocol: HMG1 binding to RAGE-Ig by ELISA: 50 μl/well of RAGE-Fc fusion protein at 5 μg/ml in PBS was added to each well of an ELISA plate and incubated overnight at 4° C. The plate was then blocked with 200 μl of 5% milk at 37° C. for 1 hr and washed 3× with PBS/Tween. 50 μl/well of diluted HMGB1 solution. For dose curves, HMGB1 concentrations started at 4 ug/ml in PBS. For antibody blocking the HMGB1 was preincubated in another plate with human anti-HMG1 antibodies or buffer, then transferred to the RAGE-coated plate. The plates were then incubated at room temperature for 2 hours and washed 3×. To detect any HMG1 bound to the immobilized RAGE-Fc a mixture of biotinylated mouse anti-HMG1 mAbs (10D4, 4H11, 3E10 and 5C12) each at 1 ug/ml, total Ab: 4 ug/ml, were added to each well and the plate was incubated for 1 hour at room temperature. The plate was then washed and Strepavidin-HPR was added to each well and incubated 15 min. The plate was then washed 3× and blotted dry. 100 μl of TMB developing agent was added and the plate read at 650 nm. Values were calculated as percent of inhibition with HMG1 alone equal to 0% inhibition. The data in FIG. 9 and summarized in Table 1 represent the average of two separate experiments.

[3] = Isoelectric focusing gel electrophoresis; format: physicochemical
Protocol: Isoelectric Focusing Gel Electrophoresis: Isoelectric points were determined using a Pharmacia Biotech Multiphor 2 electrophoresis system with a multi temp 3 refrigerated bath recirculation unit and an EPS 3501 XL power supply. Pre-cast ampholine gels (Amersham Biosciences, pI range 2.5-10) were loaded with 5 μg of protein. Broad range pI marker standards (Amersham, pI range 3-10, 8 μL) were used to determine relative pI for the Mabs. Electrophoresis was performed at 1500 V, 50 mA for 105 minutes. The gel was fixed using a Sigma fixing solution (5×) diluted with purified water to 1×. Staining was performed overnight at room temperature using Simply Blue stain (Invitrogen). Destaining was carried out with a solution that consisted of 25% ethanol, 8% acetic acid and 67% purified water. Isoelectric points were determined using a Bio-Rad Densitometer relative to calibration curves of the standards.

Row | Molecule | relative binding to HMG1 and HMG2 (HMG2) | binding to immobilized versus soluble HMG1 [1] | block of recombinant HMG1 binding to RAGE [2] | PI [3] | binding to recombinant HMG1 versus native HMG1 [1]
1 | G9: human anti-HMG1 antibody; VL/VH aa SEQ ID NO: 34/36 (antibody, listed as Homo sapiens, V domains shown) VH: EVQLLESGGGLVQPGGSLRLSCAASGFTFSSYDMFWVRQAPGKGLEWVSRISPSGGYTYYADSVKGRFTISRDNSKNTLYLQMNSLRAEDTAVYYCARLRYFDSRGYAFDIWGQGTMVTVSS VL: AQDIQMTQSPGTLSLSPGERATLSCRASQSVRSSYLAWYQQKPGQAPRLLIYGASTRATGIPDRFSGSGSGTDFTLTISRLEPEDFAVYYCQQYGTSRWTFGQGTKVEIK | specific for HMG1 | little difference in binding to immobilized or soluble HMG1 | did not inhibit RAGE binding; also recorded: do not at the concentrations tested | 9.01 | –
2 | E11: human anti-HMG1 antibody, recognizes HMG1 A-Box; VL/VH aa SEQ ID NO: 24/26 (antibody, listed as Homo sapiens, V domains shown) VH: EVQLLESGGGLVQPGGSLRLSCAASGFTFSRYQMNWVRQAPGKGLEWVSSISPSGGHTHYADSVKGRFTISRDNSKNTLYLQMNSLRAEDTAVYYCAKDGRQGKISTVDHWGQGTLVTVSS VL: AQDIQMTQSPGTLSLSPGERATLSCRASQSVRSNFLAWYQQKPGQAPRLLIYGASRRASGIPDRFSGSGFGADFTLSISRLEPEDFAVYYCQQYGSSPNTFGQGSRVEIK | some binding to HMG2; also recorded: bind better to HMG2 than to HMG1; also recorded: higher binding affinity for HMG2 | bind better to soluble rHMG1; also recorded: higher affinity for soluble HMG1 | – | 8.92 | –
3 | S16: human anti-HMG1 antibody, ATCC PTA-6259; VL/VH aa SEQ ID NO: 13/15 (antibody, listed as Homo sapiens, V domains shown) VH: EVQLLESGGGLVQPGGSLRLSCAASGFTFSWYSMLWVRQAPGKGLEWVSYISPSGGFTNYADSVKGRFTISRDNSKNTLYLQMNSLRAEDTAVYYCARWDYNSGWYYDHWGQGTLVTVSS VL: AQDIQMTQSPDTLSLSPGERATLSCRASQSVNSRNLAWYQQKPGQAPRLLIYGASTRATGIPDRFSGSVSGTEFTLTISSLQPDDFATYYCQQYNSYFTFGQGTKLEIK | some binding to both HMG1 and HMG2 | bound slightly better to immobilized rHMG1 | significant ability to block the binding of HMG1 to RAGE | 8.11 | binds both recombinant and native HMG1; also recorded: binding all forms of HMG1; also recorded: bind both forms of HMG1

Now from value to molecule, other results behind:

Row | relative binding to HMG1 and HMG2 (HMG2) | Molecule | binding to immobilized versus soluble HMG1 [1] | block of recombinant HMG1 binding to RAGE [2] | PI [3] | binding to recombinant HMG1 versus native HMG1 [1]
4 | specific for HMG1 | G20: human anti-HMG1 antibody; VL/VH aa SEQ ID NO: 46/48 (antibody, listed as Homo sapiens, V domains shown) VH: EVQLLESGGGLVQPGGSLRLSCAASGFTFSWYDMFWVRQAPGKGLEWVSWISPSGGYTKYADSVKGRFTISRDNSKNTLYLQMNSLRAEDTAMYYCARSGLDYYDSSGYLDAFDIWGQGTMVTVSS VL: AQDIQMTQSPSSVSASVGDRVTITCRASQDVSIWLAWYQQKPGKAPKLLIFGASRLQSGVPSRFSGSRSGADFTLTIDSVQPEDFASYYCQQADSFPLTFGGGTKVEIK | bind better to soluble rHMG1 | do not at the concentrations tested | 7.8 | –
5 | some binding to both HMG1 and HMG2 | S12: human anti-HMG1 antibody; VL/VH aa SEQ ID NO: 62/64 (antibody, listed as Homo sapiens, V domains shown) VH: EVQLLESGGGLVQPGGSLRLSCAASGFTFSKYIMHWVRQAPGKGLEWVSGIVPSGGLTEYADSVKGRFTISRDNSKNTLYLQMNSLRAEDTATYYCAKEIFGQFDYWGQGTLVTVSS VL: AQSALTQPPSVSAAPRQRVTISCSGSTSNIGNNAVTWYQYFPGKAPKLLIYSDNQRPSGVPDRFSGSKSGTSASLAITGLQAEDEADYYCQSYDRGLSVVFGGGTKLTVL | bound slightly better to immobilized rHMG1 | do not at the concentrations tested | 8.73 | –
6 | specific for HMG1 | S10: human anti-HMG1 antibody; VL/VH aa SEQ ID NO: 58/60 (antibody, listed as Homo sapiens, V domains shown) VH: EVQLLESGGGLVQPGGSLRLSCAASGFTFSWYDMWWVRQAPGKGLEWVSWIVPSGGITAYADSVKGRFTISRDNSKNTLYLQMNSLRAEDTATYYCARGNYGPSPFDYWGQGTLVTVSS VL: AQDIQMTQSPGTLSLSPGERATLSCRATQSVRKNFLAWYQQKPGQAPRLLIYDASSRATGIPDRFSGSGSGTDFTLTISRLEPEDFAVYYCQQYGNSPIIFGQGTRLEIK | bound slightly better to immobilized rHMG1 | significant ability to block the binding of HMG1 to RAGE | 8.76 | better binding to rHMG1; also recorded: discriminating between recombinant and the various native forms; also recorded: bind better to recombinant HMG1 than to native nuclear HMG1
